The source of these data is US20160193281A1 (BLUEBERRY THERAPEUTICS, published 2016).

The Ki is the equilibrium dissociation constant of an inhibitor or competing ligand from its target. High values mean lower affinity, low ones higher affinity. A word on the Kd: it is a measure of binding affinity in units of concentration.

Assay [1] deals with 6 kinases (of the selectivity panel, with slight activity). In words: cell-based or functional assay.
In assay [2] the target is T1, MAP kinase p38α, 6-his C-myc tagged protein expressed in E. coli (human, UniProt Q16539 2-360, limits assumed).
T1 construct: also called human MAP kinase p38α; not shown: 6-his and C-myc tags
T1 sequence (Q16539 2-360 limits assumed): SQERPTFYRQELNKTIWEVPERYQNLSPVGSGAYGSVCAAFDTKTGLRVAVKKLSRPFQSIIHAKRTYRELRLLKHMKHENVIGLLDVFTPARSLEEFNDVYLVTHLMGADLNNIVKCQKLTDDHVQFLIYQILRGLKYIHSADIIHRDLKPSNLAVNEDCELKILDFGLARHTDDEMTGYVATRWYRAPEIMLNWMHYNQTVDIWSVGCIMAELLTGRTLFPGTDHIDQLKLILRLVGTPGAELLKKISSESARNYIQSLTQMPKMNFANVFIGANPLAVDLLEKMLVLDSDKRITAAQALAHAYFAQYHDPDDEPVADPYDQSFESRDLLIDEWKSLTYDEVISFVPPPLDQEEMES
The assay is described as follows: biochemical kinase inhibition assay; biochemical enzyme assay, not Biacore.

Assay [3] concerns the target T2, uniformly 15N,2H-labelled 6His-MAP kinase p38α (human, UniProt Q16539 2-360, limits assumed, uniformly 15N,2H-labelled).
T2 construct: not shown: 6His tag
In words: NMR 1H-15N TROSY-HSQC titration, chemical shift changes in slow exchange.

The target in assay [4] is T3, MAP kinase p38α (non-phosphorylated, OH-p38α) as used in the Biacore inhibition in solution assay (human, UniProt Q16539 2-360, limits assumed).
T3 construct: The text says the chip was calibrated with nonphosphorylated or phosphorylated p38α; also called MAPK14; SAPK2a
T3 sequence (Q16539 2-360 limits assumed): as above
In words: Biacore 3000 inhibition in solution assay; p38α pre-incubated with peptide, free p38α captured on immobilised ureidoquinazoline compound; Biacore inhibition in solution assay. (In SPR one partner is held on a chip, and binding of the other changes the refractive index at the surface.)

Assay [5] concerns the target T1, MAP kinase p38α, 6-his C-myc tagged …. The assay is described as follows: cell-based or functional assay.
Another assay has as its target p38β (UniProt Q15759 1-364, limits assumed). In words: cell-based or functional assay.

Where no end group is shown, it is not given here.

p38β, sequence (Q15759 whole entry): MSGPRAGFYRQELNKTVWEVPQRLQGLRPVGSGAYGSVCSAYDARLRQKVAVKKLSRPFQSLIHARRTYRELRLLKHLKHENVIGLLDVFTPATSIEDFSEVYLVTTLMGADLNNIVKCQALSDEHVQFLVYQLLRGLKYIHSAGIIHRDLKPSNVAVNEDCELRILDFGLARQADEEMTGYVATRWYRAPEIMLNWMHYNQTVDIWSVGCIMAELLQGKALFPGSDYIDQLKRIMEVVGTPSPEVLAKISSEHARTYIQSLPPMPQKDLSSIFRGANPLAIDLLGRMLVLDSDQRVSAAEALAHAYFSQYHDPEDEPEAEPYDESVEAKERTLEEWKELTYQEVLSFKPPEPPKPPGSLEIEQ
T2 sequence (Q16539 2-360 limits assumed): as the sequence (Q16539 2-360 limits assumed) above

For the molecule Ac-HKSRALLIFQKIMWLRRQ [BB2702 (N-acetylated peptide …)], the selectivity (kinase inhibition) compared to p38α in assay [1] was 500 to 1000 fold.

B1: BB2702 (N-acetylated peptide HKSRALLIFQKIMWLRRQ) (peptide)
peptide: Ac-HKSRALLIFQKIMWLRRQ
notes: Synthetic peptide, all L-amino acids, peptide bonds throughout, N-acetylated; also called BB2702 peptide
The molecule B1 showed a Ki in assay [2] of 7 nM. Also, the Kd was under 1000 nM in assay [3] and 25 nM in assay [4]. Also, the “IC50 (inhibition of MAP kinase p38α)” value in assay [5] is 7 nM. The “IC50 for inhibition of the activation of MAP kinase p38α by MKK6” value in assay [5] came out at 1 nM. Also, the “selectivity (kinase inhibition) compared to p38α” value in the assay with p38β stood at 100 fold.
